Consider 18 molecules from US20250296995A1 (GlaxoSmithKline, published 2025).

Substitutions are numbered along the chain they refer to.

The target of test [1] is T1, recombinant Plasmodium falciparum circumsporozoite protein (CSP) (Plasmodium falciparum, UniProt Q7K740 21-375).
T1 construct: also called recombinant CSP
Put plainly: SPR, recombinant CSP. (In general: SPR reads the build-up and loss of mass on a sensor chip optically.)

In test [2] the target is T1, recombinant Plasmodium falciparum …. As to the kind of experiment: binding affinity column of the in vivo table (SPR, CSP).

T1 sequence (Q7K740 21-375 limits assumed): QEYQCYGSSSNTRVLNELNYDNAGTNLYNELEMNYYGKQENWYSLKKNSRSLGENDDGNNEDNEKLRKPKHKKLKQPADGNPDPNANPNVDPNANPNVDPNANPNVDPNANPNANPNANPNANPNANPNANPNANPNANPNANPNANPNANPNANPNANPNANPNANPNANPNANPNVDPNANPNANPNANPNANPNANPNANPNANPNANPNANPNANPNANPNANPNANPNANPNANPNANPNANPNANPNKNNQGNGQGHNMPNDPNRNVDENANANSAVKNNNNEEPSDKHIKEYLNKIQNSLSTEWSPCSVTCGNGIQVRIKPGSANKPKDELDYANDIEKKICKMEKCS

B1: AB001511 (antibody, V domains shown)
VH: QVQLVESGGGVVQPGRSLRLSCAASGFTFSSYGMHWVRQAPGKGLEWVAIIWYDGSNKYYADSVKGRFTISRDNSKNTLYLQMNSLRAEDTAVYYCARDTDDYYDAHTMDVWGQGTTVTVSS
VL: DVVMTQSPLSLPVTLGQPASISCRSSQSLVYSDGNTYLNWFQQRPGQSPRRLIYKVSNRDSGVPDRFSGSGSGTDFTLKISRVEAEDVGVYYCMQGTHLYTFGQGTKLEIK
For B1, in test [1], the Kd – broadly, the constant that tells how readily two partners part at equilibrium – was determined as 2030 pM; the off-rate (koff) (as a rule, the first-order rate constant of dissociation) was 0.000525 s⁻¹; the kon (usually the rate constant with which the complex forms) worked out at 259000 M⁻¹ s⁻¹.

B2: AB-000391 (antibody, V domains shown)
VH: EVQLVQSGGGLVQPGGSLRLSCVASGFTLSSYEMNWVRQAPGKGLEWVSFISSSGSKKRYADSVKGRFTVSRDNAKNSLSLQMNSLRAEDTAVYYCARDHSTSDREYGLDVWGQGATVTVSS
VL: DVVMTQSPLSLPVTLGQPASISCRSGQSLLYSDGNTYLYWFQQRPGQSPRRLIYKVSNRDPGVPERFSGSGSGTDFTLKISRVEAEDVGIYFCLQGTHWPYTFGRGTKLEIK
For the molecule B2, in test [1], the Kd stood at 616 pM, the koff is 0.000535 s⁻¹ and the kon worked out at 869000 M⁻¹ s⁻¹.

B3: AB-000373 (antibody, V domains shown)
VH: QVLLVESGGGVVQPGGSLRLSCTASGFTFKNYGMHWVRQAPGKGLEWVAVIWFDGSNEFYADSVEGRFTISRDNSKNTLYLQTNSLRAEDTAVYYCARSYTSSWLGFDFWGQGTLVTVSS
VL: DAVMTQTPLSLSVTPGQPASISCKSGQSLLHSDGKTYLYWYLQKPGQSPQLLIYEVSSRFSGVPDRFSGSGSGTDFTLKISRVEAEDVGVYYCMRGIHPRTFGQGTKVEIK
B3: in test [1], the Kd amounted to 59.2 pM, the koff is 0.00152 s⁻¹ and the on-rate (kon) is 2.58e+07 M⁻¹ s⁻¹. Also, in test [2], the Kd was 59.2 pM.

B4: AB-000376 (antibody, V domains shown)
VH: QVQLVESGGGVVQPGRSLRLSCTASGFTFSNYGMHWVRQAPGRALEWVAIIWHDGSNKYYADSVKGRFTISRDNSKNTLYLQMNNVRVEDTAVYHCAKVGGFGELYEAFDFWGQGTLVTVSS
VL: DIQMTQSPSTLSASVGDRVTITCRASHSISNWLAWYQQKPGKAPRLLIYKASSLNSGVPSRFSGSASGTEFTLTISSLQPDDFATYFCQQYNAYWTFGQGTKVEIK
As to B4, in test [1], the dissociation constant Kd amounted to 201 pM, the koff stood at 0.000866 s⁻¹ and the kon worked out at 4.31e+06 M⁻¹ s⁻¹.

B5: AB001396 (antibody, V domains shown)
VH: QVQLVESGGGVVQPGRSLRLSCAASGFTFSSYGMHWVRQAPGKGLEWVAIIWYDGSHKYYADSVKGRFTISRDNSKNTLYLQMNSLRAEDTAVYHCARVYQPTYYYDSSRGEAFDIWGQGTMVTVSS
VL: B4 VL with H27Q, N31S, R45K, S53N, N55G, A66G, F87Y, A93S
For the molecule B5, in test [1], the Kd turned out to be 1470 pM, the dissociation rate constant (koff) was determined as 0.000393 s⁻¹ and the kon came out at 268000 M⁻¹ s⁻¹.

B6: AB001529 (antibody, V domains shown)
VH: QVQLVESGGGVVQPGRSLRLSCVASGFSFRSYGMHWVRQAPGKGLEWVAIIWYDGSNKYYAHSVKGRFTISRDNSKNTLYLQMNSLRAEDTAIYYCAKDGGTETTWGNAFDIWGQGTMVTVSS
VL: B4 VL with H27Q, N31S, R45K, N55E, A66G, S76N, S77N, F87Y, A93S
Turning to B6, in test [1], the Kd is 1640 pM, the koff is 0.00108 s⁻¹ and the association rate constant (kon) turned out to be 660000 M⁻¹ s⁻¹.

B7: AB-000327 (antibody, V domains shown)
VH: QVQLVESGGGVVQPGRSLRLSCAASRFTFKNYGMHWVRQGPGKGLEWVAVIWYDGSQEYYVDSVRGRFTISRDNSKDTLYLQMNSLRAEDTAVYYCVRDGRYRTSHQTSTGFFDLWGQGTLVTVSS
VL: QSMLTQPPSVSGAPGQRVTISCTGSSSNIGADYDVHWYQQLPGTAPKLLIYGNNNRPSGVPDRFSGSKSGTSASLAITGLQPEDEAEYYCQSYDSSLSGSFVFGTGTKVTVL
For B7, in test [1], the Kd is 467 pM, the off-rate (koff) came out at 0.00143 s⁻¹ and the association rate constant (kon) is 3.06e+06 M⁻¹ s⁻¹. Moreover, the Kd in test [2] stood at 467 pM.

B8: AB-000338 LS (antibody, V domains shown)
VH: QVQLVESGGGVVQPGRSLRLSCAASGFSFSTYGMHWIRQVPGKGLEWVAIIWHDGSKEFYADSVKGRFTISRDNSKKKLYLQMNSLRAEDTAIYYCVKDDFDSSGHSYFHYWGQGTLVTVSS
VL: GVVMTQSPLSLPVTLGQPASISCRSSQSLVHSDGNTYVHWFQQRPGQSPRRLIYKVSNRDSGVPDRFSGSGSGTDFTLKISRVEAEDVGVYYCMQGTQWWTFGQGTKVEIK
With B8, in test [1], the dissociation constant (Kd) was determined as 130 pM, the koff was 0.00147 s⁻¹ and the kon came out at 1.13e+07 M⁻¹ s⁻¹. Moreover, the equilibrium dissociation constant (Kd) in test [2] was found to be 130 pM.

B9: AB001458 (antibody, V domains shown)
VH: EVQLVESGGGLVQPGRSLRLSCTASGFTFGDYAMSWFRQAPGKGLEWVSFIRSKTYGGSTEYAASVKGRFTISRDDSKSIAYLQMHSLKTEDTAFYYCTRVSAAAGVGDYWGQGTLVTVSS
VL: EIVMTQSPATLSVSPGERATLSCRASQSVGSNLAWYQQKPGQAPRLLIYGASTRATGLPARFSGSGSATEFTLTISSLQSEDFAVYYCQQYNTWWTFGQGTKVEIK
As to B9, in test [1], the Kd was found to be 921 pM, the off-rate constant (koff) came out at 0.00171 s⁻¹ and the on-rate constant (kon) came to 1.86e+06 M⁻¹ s⁻¹. In addition, the Kd in test [2] was 921 pM.

B10: AB-000325 (antibody, V domains shown)
VH: QVQLVESGGGVVQPGRSLRLSCAASRFPFKNYGMHWVRQAPGKGLEWVALIWFDGSNKFYVDSVEGRFTISRDNSNNMLYLEMNSLRADDTAVYYCARAGRYDDSGYLDYWGQGTLVTVSS
VL: B9 VL with N32K, Q38H, L58I, A68G, I75V, T93H, W95Y, V103L
With B10, in test [1], the Kd came to 52.9 pM, the dissociation rate constant (koff) is 0.00215 s⁻¹ and the on-rate (kon) is 4.07e+07 M⁻¹ s⁻¹.

B11: AB001558 (antibody, V domains shown)
VH: QVQLVESGGGVVQPGRSLRLSCAASGFTFSSYGMHWVRQAPGKGLEWVAVIWYDGNNKYYVDSVKGRFTISRDNSKNTLYLQMNSLRAEDTAVYYCARDHDADYVEKWGAFDLWGQGTMVTVSS
VL: B9 VL with G30S, T53A, L58I, A68G, T93N, W94G, W95R, K106T
Turning to B11, in test [1], the equilibrium dissociation constant (Kd) stood at 40200 pM, the off-rate constant (koff) was found to be 0.000797 s⁻¹ and the kon worked out at 19800 M⁻¹ s⁻¹.

B12: AB001578 (antibody, V domains shown)
VH: QVQLVESGGGVVQPGRSLRLSCAASGFSFSNYGMHWVRQAPGKGLEWVAIIWYDGSNKYYADSVKGRFTISRDNSKNTLYLQMNSLRAEDTAVYYCARDGTIWDDSRGYILDYWGQGTLVTVSS
VL: EIVLTQSPATLSLSPGERATLSCRASQGVSSYLAWYQQKPGQAPRLLIYDASNRATGIPARFSGSGSGTDFTLTISSLEPEDFAVYYCQQRSNWPPTFGPGTKVDIK
B12: in test [1], the dissociation constant (Kd) amounted to 2640 pM, the koff was determined as 0.000977 s⁻¹ and the on-rate constant (kon) came to 369000 M⁻¹ s⁻¹.

B13: AB001455 (antibody, V domains shown)
VH: QVQLVESGGGVVQPGRSLRLSCAASGFTFSNYGMHWVRQAPGKGLEWVAIIWYDGSSKYYADSVRGRFTISRDNSKNTLFLQMNSLRAEDTAVYYCARDDYYSSAYNHLGYWGQGTLVTVSS
VL: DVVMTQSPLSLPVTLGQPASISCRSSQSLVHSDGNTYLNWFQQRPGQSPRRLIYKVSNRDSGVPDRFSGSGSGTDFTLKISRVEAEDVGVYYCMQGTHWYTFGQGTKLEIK
In the case of B13, in test [1], the Kd is 1370 pM, the koff is 0.000831 s⁻¹ and the on-rate constant (kon) was found to be 608000 M⁻¹ s⁻¹. In addition, in test [2], the dissociation constant Kd amounted to 1370 pM.

B14: AB001533 (antibody, V domains shown)
VH: QVQLVESGGGVVQPGRSLRLSCAASGFTFNSYGMHWVRQAPGKGLEWVALISFDGTNKFYADSVKGRFTISRDNSKNTLYLQMNSLRAEDTALYHCATDSLFYYDFHLFDYWGQGTLVTVSS
VL: DIVLTQTPLSSPVTLGQPASISCRSSQSLVYSDGNTYLNWLQQRPGQPPRLLIYKISNRFSGVPDRFSGSGAGTDFTLKISRVEAEDVGVYYCMQATQLYTFGQGTKLEIK
Consider B14, for which, in test [1], the Kd worked out at 248 pM, the koff was determined as 0.000669 s⁻¹ and the kon turned out to be 2.69e+06 M⁻¹ s⁻¹. For the same molecule, in test [2], the dissociation constant Kd worked out at 248 pM.

B15: AB-000394 (antibody, V domains shown)
VH: QAQPVESGGGVVQPGKSLRLSCAASGFTFRNFGMHWVRQAPGKGLEWVAVIWHDGSNQFYADSVEGRFTISRDNSKNTLYLQMDSLRVEDTAMYYCARDRGYSGSWGYFDHWGQGTLVTVSS
VL: EIVLTQSPATLSLSPGERATLSCRASQSISDYLAWYQQKPGQAPRLLIYDASFRATGIPARFSGSGSGTDFTLTISSLEPEDFAVYYCQQRSIGFTFGPGTKVDIK
Consider B15, for which, in test [1], the dissociation constant (Kd) was determined as 105 pM, the koff came out at 0.00156 s⁻¹ and the kon is 1.48e+07 M⁻¹ s⁻¹. For the same molecule, in test [2], the equilibrium dissociation constant (Kd) worked out at 105 pM.

B16: AB-001545 (antibody, V domains shown)
VH: QVQLVESGGGVVQPGRSLRLSCAASGFTFSSYGMHWVRQAPGKGLEWVAVIWYDGSNKYYADSVKGRFTISRDNSKNTLYLQMNSLRAEDTAVYYCARDLDYSNHNWFDPWGQGTLVTVSS
VL: B15 VL with I29V, D31S, F53N, I93N, G94W, P99Q, K102R, V103L, D104E
Turning to B16, in test [1], the Kd was determined as 4960 pM, the koff worked out at 0.000442 s⁻¹ and the kon turned out to be 89000 M⁻¹ s⁻¹.

B17: AB001554 (antibody, V domains shown)
VH: QVQLVESGGGVVQPGRSLRLSCAASGFTFSSYGMHWVRQAPGKGLEWVAVIWYDGSNKYHADSVKGRFTISRDNSKNTLYLQMNNLRSEDTAVYYCAKDETLWFGELSDGFDIWGQGTMVTVSS
VL: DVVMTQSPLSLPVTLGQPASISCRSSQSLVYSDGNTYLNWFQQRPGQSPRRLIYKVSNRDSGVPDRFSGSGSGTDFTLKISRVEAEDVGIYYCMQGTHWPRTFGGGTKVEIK
For B17, in test [1], the Kd came out at 2290 pM, the koff came out at 0.000716 s⁻¹ and the on-rate (kon) was determined as 313000 M⁻¹ s⁻¹.

B18: AB-000231 (antibody, V domains shown)
VH: QVHLVESGGGVVQPGRSLRLSCAASGFTFRNYGIHWVRQAPGKGLEWVAVIWYDGSREFYADSVEGRFTVSRDNSKNTVFLQMNSLRVDDTAVYYCARAGYSDTSGYGDHWGQGTLVSVSS
VL: QSVLTQPPSVSGAPGQRVTISCTGGSSNIGAGYDVHWYQQLPGTAPKLLISHNNNRPSGVPDRFSGSKSGTSASLVIAGLQAEDEADYYCQSYDRRLSSSWVFGGGTRLTVLS
Turning to B18, in test [1], the Kd is 328 pM, the koff stood at 0.00142 s⁻¹ and the kon was 4.34e+06 M⁻¹ s⁻¹.
